Laboratory results published in patent publication US20220298218A1 (ANTAG THERAPEUTICS, published 2022).
*1 amine or outer side, *2 acyl side, *3 side chain or, on linkers, in order; H or OH if unused. Where no end group is shown, it is not given here. Side-chain parts run from the residue outwards. [ ]: non-standard residue; d: D form. The star is where a group is joined. C18 diacid = O=C(O)CCCCCCCCCCCCCCCCC(=O)*; C16 diacid = O=C(O)CCCCCCCCCCCCCCC(=O)*; γGlu = O=C(O)[C@H](CCC(=O)[*:2])N[*:1]; Glutaryl = O=C(CCCC(=O)[*:2])[*:1]; Nle = CCCC[C@H](N)C(=O)O; AEEA = NCCOCCOCC(=O)O

B1: AT418 (peptide)
peptide: EGTFISDYSIAMDKIK([AEEA-AEEA-AEEA-γGlu-C18 diacid])QQDFVNWLLAQKGKKNDW-OH
modifications: N-terminus assumed
SMILES: CC[C@H](C)[C@H](NC(=O)[C@H](CO)NC(=O)[C@H](Cc1ccc(O)cc1)NC(=O)[C@H](CC(=O)O)NC(=O)[C@H](CO)NC(=O)[C@@H](NC(=O)[C@H](Cc1ccccc1)NC(=O)[C@@H](NC(=O)CNC(=O)[C@@H](N)CCC(=O)O)[C@@H](C)O)[C@@H](C)CC)C(=O)N[C@@H](C)C(=O)N[C@@H](CCSC)C(=O)N[C@@H](CC(=O)O)C(=O)N[C@@H](CCCCN)C(=O)N[C@H](C(=O)N[C@@H](CCCCNC(=O)COCCOCCNC(=O)COCCOCCNC(=O)COCCOCCNC(=O)CC[C@H](NC(=O)CCCCCCCCCCCCCCCCC(=O)O)C(=O)O)C(=O)N[C@@H](CCC(N)=O)C(=O)N[C@@H](CCC(N)=O)C(=O)N[C@@H](CC(=O)O)C(=O)N[C@@H](Cc1ccccc1)C(=O)N[C@H](C(=O)N[C@@H](CC(N)=O)C(=O)N[C@@H](Cc1c[nH]c2ccccc12)C(=O)N[C@@H](CC(C)C)C(=O)N[C@@H](CC(C)C)C(=O)N[C@@H](C)C(=O)N[C@@H](CCC(N)=O)C(=O)N[C@@H](CCCCN)C(=O)NCC(=O)N[C@@H](CCCCN)C(=O)N[C@@H](CCCCN)C(=O)N[C@@H](CC(N)=O)C(=O)N[C@@H](CC(=O)O)C(=O)N[C@@H](Cc1c[nH]c2ccccc12)C(=O)O)C(C)C)[C@@H](C)CC
B2: AT419 (peptide)
peptide: SGTFISDYSIAMDKIK([AEEA-AEEA-γGlu-C16 diacid])QQDFVNWLLAQKGKKNDW-OH
modifications: N-terminus assumed
SMILES: CC[C@H](C)[C@H](NC(=O)[C@H](CO)NC(=O)[C@H](Cc1ccc(O)cc1)NC(=O)[C@H](CC(=O)O)NC(=O)[C@H](CO)NC(=O)[C@@H](NC(=O)[C@H](Cc1ccccc1)NC(=O)[C@@H](NC(=O)CNC(=O)[C@@H](N)CO)[C@@H](C)O)[C@@H](C)CC)C(=O)N[C@@H](C)C(=O)N[C@@H](CCSC)C(=O)N[C@@H](CC(=O)O)C(=O)N[C@@H](CCCCN)C(=O)N[C@H](C(=O)N[C@@H](CCCCNC(=O)COCCOCCNC(=O)COCCOCCNC(=O)CC[C@H](NC(=O)CCCCCCCCCCCCCCC(=O)O)C(=O)O)C(=O)N[C@@H](CCC(N)=O)C(=O)N[C@@H](CCC(N)=O)C(=O)N[C@@H](CC(=O)O)C(=O)N[C@@H](Cc1ccccc1)C(=O)N[C@H](C(=O)N[C@@H](CC(N)=O)C(=O)N[C@@H](Cc1c[nH]c2ccccc12)C(=O)N[C@@H](CC(C)C)C(=O)N[C@@H](CC(C)C)C(=O)N[C@@H](C)C(=O)N[C@@H](CCC(N)=O)C(=O)N[C@@H](CCCCN)C(=O)NCC(=O)N[C@@H](CCCCN)C(=O)N[C@@H](CCCCN)C(=O)N[C@@H](CC(N)=O)C(=O)N[C@@H](CC(=O)O)C(=O)N[C@@H](Cc1c[nH]c2ccccc12)C(=O)O)C(C)C)[C@@H](C)CC
B3: AT420 (peptide)
peptide: SGTFISDYSIAMDKIK([AEEA-AEEA-AEEA-γGlu-C16 diacid])QQDFVNWLLAQKGKKNDW-OH
modifications: N-terminus assumed
SMILES: CC[C@H](C)[C@H](NC(=O)[C@H](CO)NC(=O)[C@H](Cc1ccc(O)cc1)NC(=O)[C@H](CC(=O)O)NC(=O)[C@H](CO)NC(=O)[C@@H](NC(=O)[C@H](Cc1ccccc1)NC(=O)[C@@H](NC(=O)CNC(=O)[C@@H](N)CO)[C@@H](C)O)[C@@H](C)CC)C(=O)N[C@@H](C)C(=O)N[C@@H](CCSC)C(=O)N[C@@H](CC(=O)O)C(=O)N[C@@H](CCCCN)C(=O)N[C@H](C(=O)N[C@@H](CCCCNC(=O)COCCOCCNC(=O)COCCOCCNC(=O)COCCOCCNC(=O)CC[C@H](NC(=O)CCCCCCCCCCCCCCC(=O)O)C(=O)O)C(=O)N[C@@H](CCC(N)=O)C(=O)N[C@@H](CCC(N)=O)C(=O)N[C@@H](CC(=O)O)C(=O)N[C@@H](Cc1ccccc1)C(=O)N[C@H](C(=O)N[C@@H](CC(N)=O)C(=O)N[C@@H](Cc1c[nH]c2ccccc12)C(=O)N[C@@H](CC(C)C)C(=O)N[C@@H](CC(C)C)C(=O)N[C@@H](C)C(=O)N[C@@H](CCC(N)=O)C(=O)N[C@@H](CCCCN)C(=O)NCC(=O)N[C@@H](CCCCN)C(=O)N[C@@H](CCCCN)C(=O)N[C@@H](CC(N)=O)C(=O)N[C@@H](CC(=O)O)C(=O)N[C@@H](Cc1c[nH]c2ccccc12)C(=O)O)C(C)C)[C@@H](C)CC

Each binder was assayed against T1, human GIP receptor (human, UniProt P48546 22-466) (assay: cell-based or functional assay).
T1 sequence (looked up): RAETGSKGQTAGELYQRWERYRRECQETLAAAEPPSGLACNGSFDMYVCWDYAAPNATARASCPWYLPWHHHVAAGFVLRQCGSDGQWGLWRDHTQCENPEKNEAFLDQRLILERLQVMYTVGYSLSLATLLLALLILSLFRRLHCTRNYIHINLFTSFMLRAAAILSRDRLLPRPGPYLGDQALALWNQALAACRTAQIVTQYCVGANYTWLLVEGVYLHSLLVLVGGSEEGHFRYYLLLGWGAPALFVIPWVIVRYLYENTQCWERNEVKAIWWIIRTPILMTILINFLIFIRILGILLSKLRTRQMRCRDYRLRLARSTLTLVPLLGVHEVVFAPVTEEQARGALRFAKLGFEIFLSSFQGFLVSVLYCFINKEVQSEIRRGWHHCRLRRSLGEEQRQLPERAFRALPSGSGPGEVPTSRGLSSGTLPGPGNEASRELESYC

With B1 as the binder, how does the “cAMP agonism Emax” value read?
The value was 7.8.

And the “cAMP antagonism” value?
The value was 68 nM.

What about the “cAMP antagonism % inhib” value of the same binder?
Its value is 95%.

What about the cAMP antagonism log of the same binder?
Its cAMP antagonism log is -7.2 log M.

How did the “cAMP agonism Emax” value turn out when B2 was run?
Its value is 4.9.

What about the “cAMP antagonism” value of the same binder?
The value was 215 nM.

And the “cAMP antagonism % inhib” value?
The value was 78%.

What about the cAMP antagonism log of the same binder?
The cAMP antagonism log was -6.7 log M.

Which “cAMP antagonism” value does the source give for B3 here?
The value was 237 nM.

What about the “cAMP antagonism % inhib” value of the same binder?
Its value is 100%.

What about the cAMP antagonism log of the same binder?
The cAMP antagonism log was -6.6 log M.

Target: T1, human GIP receptor
Assay: cell-based or functional assay
Remark: another data set of the same source

With Glutaryl-GTFISDYSIA[Nle]DKIK(C16 diacid)QQDFVEWLLAQKPSSGAPPPS-OH [AT700] as the binder, how does the “cAMP agonism % Emax” value read?
Its value is 3%.

And the “cAMP antagonism” value?
The value was 0.708 nM.

And the “cAMP antagonism % inhib” value?
The value was 89%.

What about the “cAMP antagonism pIC50” value of the same binder?
Its value is 9.2.

For [βGlu]GTFISDYSIA[Nle]DKIK([AEEA-AEEA-γGlu-C18 diacid])QQDFVEWLLAQKPSSGAPPPS-OH [AT701], which “cAMP agonism % Emax” value is on record?
The value was 13%.

What about the “cAMP antagonism” value of the same binder?
Its value is 12.6 nM.

And the “cAMP antagonism % inhib” value?
Its value is 63%.

And the “cAMP antagonism pIC50” value?
The value was 7.9.

What does the source list for Glutaryl-GTFISDYSIA[Nle]DKIK([AEEA-AEEA-γGlu-C18 diacid])QQDFVEWLLAQKPSSGAPPPS-OH [AT702]?
cAMP agonism % Emax: 0%; cAMP antagonism: 3.55 nM; cAMP antagonism % inhib: 85%; cAMP antagonism pIC50: 8.5

For EGTFISDYSIALDKIKQQDFVNWLLAQKPSSGAPPPS (βGlu at 3; Aib at 13; Nle at 14; K18: C16-diacid; C-term COOH) [AT703], which “cAMP agonism % Emax” value is on record?
The value was 0%.

What about the “cAMP antagonism” value of the same binder?
The value was 4.3 nM.

And the “cAMP antagonism % inhib” value?
Its value is 93%.

And the “cAMP antagonism pIC50” value?
Its value is 8.6.
